What all share (format): physicochemical
Series [1] can be described thus: Structure and thermal stability (Tm) by circular dichroism. Particulars: 0.1 mg/ml; for Structure change: circular dichroism 190-250 nm, 20 mM sodium phosphate pH 5.5, 20° C., versus wild-type EGF; for Tm (melting temperature): circular dichroism, 20° C. to 95° C. at 1° C./min. Here is the method:
The structure and thermal stability of the purified EGF mutant were measured through a circular dichroism analysis using a J-810 spectrometer (JASCO). As the wild-type EGF, the purified EGF prepared in Example 2 was used. In order to analyze the structure, each EGF was dissolved in 20 mM sodium phosphate (pH 5.5) to be uniformly a final concentration of 0.1 mg/ml. And then, the dissolved EGF solution was added to 0.1 cm cell, and then its structure was analyzed under the conditions of, as 190 nm to 250 nm region, band width 1 nm, response 0.25 sec, data pitch 0.1 nm, scanning speed 20 nm/min, cell length 1 cm, accumulation 8 times, and a temperature of 20° C.
In order to analyze the thermal stability, a wavelength of 200 nm was determined through a comparison analysis of far-UV at the Tm (melting temperature) of 20° C. and 95° C., and progressed in a concentration of 0.1 mg/ml in 0.1 cm cell. As the conditions, it was measured at 20° C. to 95° C. under condition of 1° C./min.
The structure is changed at the band of about 195 nm when generating a folding-unfolding phenomenon. Using it, the melting temperature (Tm) was measured in the range of 20 to 95° C., and thus the accurate Tm value was analyzed. As a result, as for the structure change, most mutants had the similar structure as the wild-type EGF, and thus there were few changes. […] It can be confirmed that the thermal stabilities of M2 and M3 were improved by 87° C.
(Circular dichroism is the unequal absorption of left and right circularly polarised light.)

The nature of series [2]: Circular dichroism after incubation at 60° C. As to conditions: 0.3 mg/ml, 20 mM sodium phosphate pH 5.5, 60° C., five days. Here is the method:
The stabilities of wild-type EGF and mutants should be confirmed through being stored at room temperature for a long period of time, but there is a disadvantage in that the time is too long. Therefore, the incubation test was performed at extreme environment for a short period of time. 0.3 mg/ml of each of the wild-type EGF and mutants was dissolved in 20 mM sodium phosphate (pH 5.5), and then subjected to the incubation in a water bath of 60° C. The sampling was performed per 24 hours unit, and then centrifuged at 13000 rpm and 4° C. for 15 minutes to collect the supernatant. The supernatant was diluted with 20 mM sodium phosphate (pH 5.5), and its structure was measured by using a circular dichroism. And then, the supernatant was added to 0.1 cm cell, and its structure was analyzed under the conditions of, in a region of 190 nm to 250 nm, band width 1 nm, response 0.25 sec, data pitch 0.1 nm, scanning speed 20 nm/min, cell length 1 cm, accumulation 8 times, a temperature of 20° C. […] In order to easily confirm such a result, the graph as illustrated in FIG. 3 is used using the ratio of the signal value at a first day to the signal value at 200 nm that has the biggest difference of signals. Table. […] From such a result, it can be confirmed that the EGF mutants prepared in the present invention have excellent thermal stability and solubility.

Series [3] can be described thus: Solubility of wild-type and mutant EGFs in 20 mM sodium phosphate (pH 5.5). The procedure:
1 mg of the respective wild-type and mutant EGFs prepared was dissolved in 1 ml of 20 mM sodium phosphate (pH 5.5 that is the similarly pH environment as cosmetics). In order to remove undissolved EGF, the mixture thus obtained was centrifuged and then supernatant was obtained. The concentration of the supernatant thus obtained was measured by using a Bradford method and UV method.

As to “C-26-2: EGF mutant, 26th leucine substituted with serine (SEQ ID NO: 73) (NSDSECPLSHDGYCLHDGVCMYIEASDKYACNCVVGYIGERCQYRDLKWWELR; not fully specified; Epidermal growth factor; UniProt P01133 971-1023, looked up, variant L26S)”, in series [1], the Structure change result was “No change” and the “Tm (melting temperature)” value is reported as “(76° C.)”.

For “D-35-5: EGF mutant, 35th valine substituted with serine (SEQ ID NO: 79) (CNCVSGYIGE)”, in series [1], the Structure change entry is given as “No change” and the “Tm (melting temperature)” value is on record as “(76° C.)”.

Consider “D-34-3: EGF mutant, 34th valine substituted with aspartic acid (SEQ ID NO: 77) (NSDSECPLSHDGYCLHDGVCMYIEALDKYACNCDVGYIGERCQYRDLKWWELR; not fully specified; Epidermal growth factor; UniProt P01133 971-1023, looked up, variant V34D)”, for which, in series [1], the Structure change entry is recorded as “No change” and the “Tm (melting temperature)” value is “(76° C.)”.

Take “D-38-12: EGF mutant, 38th isoleucine substituted with aspartic acid (SEQ ID NO: 86) (CNCVVGYDGE)”: in series [1], the Structure change result is given as “No change” and the “Tm (melting temperature)” value is “(76° C.)”.

Regarding “B-19-3: EGF mutant, 19th valine substituted with glutamic acid (SEQ ID NO: 68) (NSDSECPLSHDGYCLHDGECMYIEALDKYACNCVVGYIGERCQYRDLKWWELR; not fully specified; Epidermal growth factor; UniProt P01133 971-1023, looked up, variant V19E)”, in series [1], the Structure change entry is listed as “No change” and the “Tm (melting temperature)” value is “(76° C.)”. In series [2], the “Percentage to wild-type EGF (CD signal value at 200 nm)” value was determined as 84.22%.

Consider “A-8-3: EGF mutant, eighth leucine substituted with proline (SEQ ID NO: 64) (NSDSECPPSHDGYCLHDGVCMYIEALDKYACNCVVGYIGERCQYRDLKWWELR; not fully specified; Epidermal growth factor; UniProt P01133 971-1023, looked up, variant L8P)”, for which, in series [1], the Structure change entry was “No change” and the “Tm (melting temperature)” value is given as “(76° C.)”.

As to “E-50-6: EGF mutant, 50th tryptophan substituted with glutamic acid (SEQ ID NO: 93) (RCQYRDLKWEELR)”, in series [1], the Structure change entry is on record as “No change” and the “Tm (melting temperature)” value is given as “(76° C.)”.

Take “D-34-4: EGF mutant, 34th valine substituted with lysine (SEQ ID NO: 78) (CNCKVGYIGE)”: in series [1], the Structure change entry is “No change” and the “Tm (melting temperature)” value was “(76° C.)”.

Consider “D-35-8: EGF mutant, 35th valine substituted with lysine (SEQ ID NO: 82) (CNCVKGYIGE)”, for which, in series [1], the Structure change result is recorded as “No change” and the “Tm (melting temperature)” value is “(76° C.)”.

As for “D-38-11: EGF mutant, 38th isoleucine substituted with glutamic acid (SEQ ID NO: 85) (CNCVVGYEGE)”, in series [1], the Structure change result was “No change” and the “Tm (melting temperature)” value is given as “(76° C.)”.

With “D-34-1: EGF mutant, 34th valine substituted with serine (SEQ ID NO: 75) (NSDSECPLSHDGYCLHDGVCMYIEALDKYACNCSVGYIGERCQYRDLKWWELR; not fully specified; Epidermal growth factor; UniProt P01133 971-1023, looked up, variant V34S)”, in series [1], the Structure change entry is “No change” and the “Tm (melting temperature)” value is “(76° C.)”.

For the substance “D-35-6: EGF mutant, 35th valine substituted with glutamic acid (SEQ ID NO: 80) (CNCVEGYIGE)”, in series [1], the Structure change result was “No change” and the “Tm (melting temperature)” value was “(76° C.)”. Moreover, the “Percentage to wild-type EGF (CD signal value at 200 nm)” value in series [2] was determined as 100.14%.

In the case of “A-8-2: EGF mutant, eighth leucine substituted with serine (SEQ ID NO: 63) (NSDSECPSSHDGYCLHDGVCMYIEALDKYACNCVVGYIGERCQYRDLKWWELR; not fully specified; Epidermal growth factor; UniProt P01133 971-1023, looked up, variant L8S)”, the Solubility in series [3] (1 mg in 1 ml 20 mM sodium phosphate pH 5.5, supernatant, Bradford and UV method) came out at 0.6991 mg/mL. For the same substance, the “Solubility (Comparison with wild-type %)” value in series [3] (20 mM sodium phosphate pH 5.5, relative to wild-type EGF) stood at 137%. Further, in series [1], the Structure change entry was “No change” and the “Tm (melting temperature)” value is “(76° C.)”.

As to “B-19-2: EGF mutant, 19th valine substituted with serine (SEQ ID NO: 67) (NSDSECPLSHDGYCLHDGSCMYIEALDKYACNCVVGYIGERCQYRDLKWWELR; not fully specified; Epidermal growth factor; UniProt P01133 971-1023, looked up, variant V19S)”, in series [1], the Structure change entry is “No change” and the “Tm (melting temperature)” value is recorded as “(76° C.)”.

As for “E-48-3: EGF mutant, 48th lysine substituted with arginine (SEQ ID NO: 90) (RCQYRDLRWWELR)”, in series [1], the Structure change entry is “No change” and the “Tm (melting temperature)” value is on record as “(76° C.)”.

Regarding “B-19-5: EGF mutant, 19th valine substituted with lysine (SEQ ID NO: 70) (NSDSECPLSHDGYCLHDGKCMYIEALDKYACNCVVGYIGERCQYRDLKWWELR; not fully specified; Epidermal growth factor; UniProt P01133 971-1023, looked up, variant V19K)”, in series [1], the Structure change result was “No change” and the “Tm (melting temperature)” value is on record as “(76° C.)”.

As for “E-50-5: EGF mutant, 50th tryptophan substituted with histidine (SEQ ID NO: 92) (RCQYRDLKWHELR)”, in series [1], the Structure change result is reported as “No change” and the “Tm (melting temperature)” value was “(76° C.)”.

For “E-50-4: EGF mutant, 50th tryptophan substituted with serine (SEQ ID NO: 91) (RCQYRDLKWSELR)”, in series [1], the Structure change result is on record as “No change” and the “Tm (melting temperature)” value is “(76° C.)”.

In the case of “D-38-9: EGF mutant, 38th isoleucine substituted with serine (SEQ ID NO: 83) (CNCVVGYSGE)”, in series [1], the Structure change result is recorded as “No change” and the “Tm (melting temperature)” value is recorded as “(76° C.)”.

As to “B-19-4: EGF mutant, 19th valine substituted with aspartic acid (SEQ ID NO: 69) (NSDSECPLSHDGYCLHDGDCMYIEALDKYACNCVVGYIGERCQYRDLKWWELR; not fully specified; Epidermal growth factor; UniProt P01133 971-1023, looked up, variant V19D)”, in series [1], the Structure change result is “No change” and the “Tm (melting temperature)” value is “(76° C.)”.

As to “D-35-7: EGF mutant, 35th valine substituted with aspartic acid (SEQ ID NO: 81) (CNCVDGYIGE)”, in series [1], the Structure change result was “No change” and the “Tm (melting temperature)” value is “(76° C.)”.

“A-4-1: EGF mutant, fourth serine substituted with glutamic acid (SEQ ID NO: 62) (NSDEECPLSHDGYCLHDGVCMYIEALDKYACNCVVGYIGERCQYRDLKWWELR; not fully specified; Epidermal growth factor; UniProt P01133 971-1023, looked up, variant S4E)”: in series [1], the Structure change entry is “No change” and the “Tm (melting temperature)” value is “(76° C.)”.

The Solubility is the concentration that dissolves in the medium under given conditions. Higher therefore signals a readily soluble substance.

Source of the values: patent US9102755B2, “Highly stabilized epidermal growth factor mutants” (PnP Biopharm Co., Ltd., priority 2013, dated 2015).
